Substrate: O=C(O)CC(S)C(=O)O
Assay: oxygen consumption, oxygen electrode, nonlinear regression
Format: biochemical, Advenella mimigardefordensis
Conditions: 100 mM Tris/HCl pH 7.4, 0.05-75 mM MS, 2 ug/ml enzyme, O2 co-substrate

B1: MsdoDPN7 (MsdoAm; MIM_c37420) (Advenella mimigardefordensis DPN7) (protein)
chain: MTSKQDKQVAIRQFIDITKDIDSAQLDREKLAKIRDALVGIAAHKEWWGQDLYPAPTGDELQARYLIHAEPDNSYALYLNVMKPGKKIVPHNHTTWACIAAVEGVESNYLYERTDDGSVPGHATVVQTGMQAVEPGHGIALMPDDIHAVRIEDDNIRHLHMYGRALETLTERMAFDTSNNTCKIMDVGVKTQRSKG
notes: full gene in pET-19b (NdeI/XhoI), N-terminal His tag, expressed in E. coli BL21(DE3) pLysS, Ni-NTA purified; tag removal not mentioned
Q: How did the Km turn out when B1 was run?
A: 200 µM

Reference: PMC5373536, “Proteomic analysis of organic sulfur compound utilisation in Advenella mimigardefordensis strain DPN7^T” (PLoS ONE, 2017)
